In this assay the target is T1, IL-2αβγ triple receptor (Homo sapiens, UniProt P01589+P14784+P31785).
T1 construct: Uniprot P01589 1Met-551Ile constructed into plasmid pcDNA3.1/zeo; Uniprot P14784 1Met-551Val constructed into plasmid pcDNA3.1(+); Uniprot P31785 1Met-551Thr was constructed into plasmid pcDNA3.1/zeo; expressed in transfected cells; host or cells: 293EC18 cells, transient co-transfection with pCMV/JAK3 and PGL4.52/STAT5RE
T1 sequence (P01589 22-272): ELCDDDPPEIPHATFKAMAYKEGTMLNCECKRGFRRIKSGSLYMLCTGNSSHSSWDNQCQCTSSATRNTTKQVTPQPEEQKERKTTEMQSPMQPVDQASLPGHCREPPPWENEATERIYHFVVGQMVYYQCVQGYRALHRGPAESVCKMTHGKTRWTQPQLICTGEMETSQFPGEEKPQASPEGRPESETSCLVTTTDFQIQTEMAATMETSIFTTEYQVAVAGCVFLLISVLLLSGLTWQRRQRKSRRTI
T1 sequence (P14784 27-551): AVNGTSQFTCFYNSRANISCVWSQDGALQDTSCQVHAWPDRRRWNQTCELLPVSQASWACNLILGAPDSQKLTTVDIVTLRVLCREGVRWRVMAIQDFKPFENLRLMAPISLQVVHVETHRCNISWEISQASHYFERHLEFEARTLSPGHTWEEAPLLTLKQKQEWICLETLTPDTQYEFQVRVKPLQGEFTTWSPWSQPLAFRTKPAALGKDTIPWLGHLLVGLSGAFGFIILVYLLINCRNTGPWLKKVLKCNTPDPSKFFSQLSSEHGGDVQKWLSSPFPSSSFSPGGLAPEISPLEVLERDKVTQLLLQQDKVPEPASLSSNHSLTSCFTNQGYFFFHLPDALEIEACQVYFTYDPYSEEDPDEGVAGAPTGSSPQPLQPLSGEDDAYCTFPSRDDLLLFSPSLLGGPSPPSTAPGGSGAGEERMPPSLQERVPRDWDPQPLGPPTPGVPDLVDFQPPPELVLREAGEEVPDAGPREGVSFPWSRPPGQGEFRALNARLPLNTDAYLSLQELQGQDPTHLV
T1 sequence (P31785 23-369): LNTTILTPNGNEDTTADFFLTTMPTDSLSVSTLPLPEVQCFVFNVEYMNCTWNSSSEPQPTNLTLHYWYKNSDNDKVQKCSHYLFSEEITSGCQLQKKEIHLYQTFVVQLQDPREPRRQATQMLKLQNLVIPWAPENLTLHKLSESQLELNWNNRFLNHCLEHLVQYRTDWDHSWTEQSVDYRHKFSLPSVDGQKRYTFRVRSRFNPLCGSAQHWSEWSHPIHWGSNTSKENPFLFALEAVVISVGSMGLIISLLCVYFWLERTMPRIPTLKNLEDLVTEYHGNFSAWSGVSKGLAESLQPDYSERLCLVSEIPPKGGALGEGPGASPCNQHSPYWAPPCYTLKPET
In words: STAT5 reporter gene assay, activation of IL-2αβγ triple receptor in 293EC18/αβγ/JAK3/STAT5 cells. The following applies: Example 4, Figure 6, 80k PEG. Format: cell-based. How it is done:
Since the binding of IL-2 to the β and γ subunits of its receptor induces STAT5 phosphorylation, which subsequently leads to dimerization and translocation into the nucleus to promote target gene transcription, this example evaluates the ability of the mutant IL-2 polypeptides to induce signaling through the IL-2 receptor by measuring STAT5 phosphorylation.
Adherent 293EC18 cells were cultured to about 90% confluence using conventional methods. After trypsin digestion, the cells were resuspended in cell culture medium to 4×10^5 cells/ml and 50 µl/well were added to two 96-well cell culture plates. After incubation at 37°C for 48 h, the supernatant was aspirated and fresh culture medium was added. […]
Each IL2 mutant was diluted 4-fold in a gradient manner using PBS buffer, with a total of 11 dilutions and a starting concentration of 65.2 nM. […] Bio-Lite Luciferase Assay System reagents that have been mixed and equilibrated to room temperature were added to the cell culture plates to be tested at 100 µl/well, placed on a microplate shaker at 450 rpm to mix for 2 minutes, then allowed to stand at room temperature for 3 minutes, and the chemiluminescence value was detected with an enzyme plate reader.
The logarithm of the final concentration of each IL-2 mutant sample was used as the X-axis, and the chemiluminescence detection results were used as the Y-axis for plotting. Data were analyzed using the four-parameter logistic regression model in GraphPad Prism 9. Table 2 EC50 values for the activation of the IL-2αβγ triple receptor by PEG-IL-2 mutants as determined by a reporter gene assay.
According to the method of Example 3, each polyethylene glycol-modified mutant obtained in this example was assessed for the binding preference to the IL2 receptors by a reporter assay. Table 4 EC50 values for the activation of the IL-2αβγ triple receptor by PEG-IL-2 mutants as determined by a reporter gene assay. […]
On the technique in general: A reporter such as luciferase makes a cellular process visible.

From patent EP4631972A1, “SITE-SPECIFIC COUPLED PEGYLATED INTERLEUKIN-2 MUTANT WITH RECEPTOR AFFINITY PREFERENCE AND USE THEREOF” (priority 2022, dated 2024) come the findings set out here.

B1: 80K-1PEG-IL2-N88R-N77C: IL-2 mutant N88R, N77C, conjugation site 77, PEG molecular weight 80kD (conjugate)
chain: APTSSSTKKTQLQLEHLLLDLQMILNGINNYKNPKLTRMLTFKFYMPKKATELKHLQCLEEELKPLEEVLNLAQSKC(PEG 80 kDa)FHLRPRDLISRINVIVLELKGSETTFMCEYADETATIVEFLNRWITFSQSIISTLT
As to B1, the “activation activity on the IL-2Rαβγ triple receptor compared with 80K-1PEG-IL2-N88R-D109C” value was “slightly higher activation activity”.
